Test results as given in patent US10456446B2, “Use of human small leucine zipper protein in osteogenesis procedure” (Korea University Research and Business Foundation, priority 2013, dated 2019).

Legend:
[1] = target: T1, Runx2 (Homo sapiens, UniProt Q13950); assay: Runx2 transcriptional activity, luciferase reporter with 6 copies of Runx2 response elements in 293T cells; format: cell-based
T1 construct: expressed in transfected cells; host or cells: 293T
Experimental: Appropriately transfected cells were washed with cold PBS twice, and a reporter lysis buffer (Promega) was used and lysed in a culture dish. Luciferase analysis was performed using a luciferase analysis system (Promega Corporation, Madison, Wis.). A luciferase activity was recorded in Luminometer 20/20^n (Turner BioSystems, Sunnyvale, Calif.) according to instructions of the manufacturer. The luciferase activity was normalized to a β-galactosidase activity. For β-galactosidase analysis, CMV-β-galactosidase was transfected with luciferase reporter genes. All pieces of data were represented as mean±standard deviation of the results from at least three independent experiments.
Therefore, in order to characterize a potential role of sLZIP in the transcriptional activity of Runx2 by inhibiting the transcriptional activity of PPARγ2, the transcriptional activity of Runx2 was examined. For this purpose, 293T cells were temporarily transfected with Runx2 (0.5 μg), β-galactosidase (0.1 μg), 6 copies of Runx2 response elements (0.2 μg) and sLZIP at different contents (0.1 μg to 0.5 μg) (FIG. 7A). PPARγ2 (0.5 μg), β-galactosidase, Runx2, 6 copies of Runx2 response elements and sLZIP (0.5 μg) were expressed in the 293T cells (FIG. 7B). 293T cells were temporarily transfected with HDAC3 (0.5 μg), Runx2, β-galactosidase, 6 copies of Runx2 response elements and sLZIP at different contents (0.25 and 0.5 μg) (FIG. 7C). A promoter activity was measured by luciferase analysis. A luciferase activity was normalized to a β-galactosidase activity and represented as a relative activity (fold change). All experiments were repeated three times and data was represented as mean±standard deviation. A medium of primary MSCs and C3H10T1/2 cells of a human was exchanged with a differentiation medium in which 50 μg/mL of ascorbic acid, 10 mM of β-glycerol phosphate and 10% FBS were contained for 8 days (FIG. 7D). A medium of MEF cells was exchanged with a differentiation medium in which 50 μg/mL of ascorbic acid, 10 mM of β-glycerol phosphate and 10% FBS were contained for 8 days. […]

[2] = system: sLZIP TG mouse embryos; assay: Ossification in vivo, alcian blue and alizarin red staining of sLZIP TG mouse embryos on E17.5; details: E17.5, compared with wild type littermate
From the text: (§1) In order to generate human sLZIP transgenic (TG) mice, sLZIP genes were cloned into a pCMV-flag expression vector. The sLZIP TG mice were generated by Macrogen, Inc (Seoul, Korea). Transgenic founders were mated with wild type C57BL/6 mice to produce F1 heterozygotes. F1-F4 generations were genetically screened for transgenes at an age of 2 weeks old. The following two primers were used to amplify genomic DNA in order to identify wild type and TG mice: 5′-GGACGATGATGACAAGGACT-3′ (SEQ ID NO: 25) and 5′-GTCAGAGGAGTACATGCTGCT-3′(SEQ ID NO: 26).
Therefore, in order to characterize a potential role of sLZIP in the transcriptional activity of Runx2 by inhibiting the transcriptional activity of PPARγ2, the transcriptional activity of Runx2 was examined. For this purpose, 293T cells were temporarily transfected with Runx2 (0.5 μg), β-galactosidase (0.1 μg), 6 copies of Runx2 response elements (0.2 μg) and sLZIP at different contents (0.1 μg to 0.5 μg) (FIG. 7A). PPARγ2 (0.5 μg), β-galactosidase, Runx2, 6 copies of Runx2 response elements and sLZIP (0.5 μg) were expressed in the 293T cells (FIG. 7B). 293T cells were temporarily transfected with HDAC3 (0.5 μg), Runx2, β-galactosidase, 6 copies of Runx2 response elements and sLZIP at different contents (0.25 and 0.5 μg) (FIG. 7C). A promoter activity was measured by luciferase analysis. […]

[3] = system: ATDC5 cells; assay: Chondrocyte differentiation marker mRNA in ATDC5 cells, RT-PCR and real-time PCR; format: cell-based; details: sLZIP 0.1 μg to 0.5 μg, in a reaction with insulin
Experimental: According to instructions of the manufacturer, a TRIzol reagent (Invitrogen, Carlsbad, Calif.) was added to directly lyse cells in a culture dish. Accupower RT PreMix (BioNeer, Daejeon, Korea) was used to synthesize cDNA from 2 μg of total RNA. A reaction was performed for 60 minutes at 42° C. and for 5 minutes at 94° C. PCR amplification was performed using oligomers listed in Table 2 and a Hipi PCR Mix Kit (ELPIS). As an internal control group, GAPDH was amplified. A PCR product was subjected to electrophoresis in 1-2% (w/v) agarose gel containing 0.5 μg/mL ethidium bromide. A size of the PCR product was measured by comparing it with 1 kb DNA ladder marker (Invitrogen). An intensity of bands amplified according to RT-PCR was analyzed using MultiImage™ Light Cabinet (version 5.5, Alpha Innotech Corp., San Leandro, Calif.).
Real-time PCR was performed in LightCycler 480 using a SYBR Green Master Mix (Roche, Mannheim, Germany). β-actin was used as an internal control group. A target gene expression level rate with respect to β-actin was calculated using CT method. A Ct value is defined as a PCR cycle number at which a fluorescence signal reaches a fixed target threshold. Experiments were technically repeated three times for each experiment. […]

[4] = system: sLZIP TG mouse embryos; assay: Cartilage development, alcian blue staining of sLZIP TG mouse embryos on E12.5; format: in vivo; details: E12.5, compared with wild type
From the text: as §1
(§2) When a bone is initially developed during an embryo, cartilage is formed and hardened to a bone according to a so-called ossification (or osteogenesis) process. In order to examine whether sLZIP-mediated osteogenesis is associated with cartilage development, an effect of sLZIP in chondrocyte differentiation was examined. For this purpose, ATDC5 cells were temporarily transfected with sLZIP at different contents (0.1 μg to 0.5 μg). Total RNA was extracted from the cells, and an mRNA expression level of a chondrocyte marker was measured using RT-PCR analysis (FIG. 8A) and real-time PCR (FIG. 8B). GAPDH was used as an internal control group. An experiment was repeated three times. […] Total RNA was extracted from the mature osteoclasts, and an mRNA expression level of an osteoclast marker was measured using real-time PCR (FIG. 8D). […]

[5] = system: BMMs (bone marrow macrophages)-derived mature osteoclasts; assay: Osteoclast marker mRNA in osteoclasts derived from bone marrow macrophages of sLZIP TG mice, real-time PCR; format: cell-based, mouse; details: RANKL 100 ng/mL and M-CSF 30 ng/mL, wild type versus sLZIP TG mice
Experimental: Real-time PCR was performed in LightCycler 480 using a SYBR Green Master Mix (Roche, Mannheim, Germany). β-actin was used as an internal control group. A target gene expression level rate with respect to β-actin was calculated using CT method. A Ct value is defined as a PCR cycle number at which a fluorescence signal reaches a fixed target threshold. Experiments were technically repeated three times for each experiment.
as §2

T1 sequence (Q13950 whole entry, species assumed): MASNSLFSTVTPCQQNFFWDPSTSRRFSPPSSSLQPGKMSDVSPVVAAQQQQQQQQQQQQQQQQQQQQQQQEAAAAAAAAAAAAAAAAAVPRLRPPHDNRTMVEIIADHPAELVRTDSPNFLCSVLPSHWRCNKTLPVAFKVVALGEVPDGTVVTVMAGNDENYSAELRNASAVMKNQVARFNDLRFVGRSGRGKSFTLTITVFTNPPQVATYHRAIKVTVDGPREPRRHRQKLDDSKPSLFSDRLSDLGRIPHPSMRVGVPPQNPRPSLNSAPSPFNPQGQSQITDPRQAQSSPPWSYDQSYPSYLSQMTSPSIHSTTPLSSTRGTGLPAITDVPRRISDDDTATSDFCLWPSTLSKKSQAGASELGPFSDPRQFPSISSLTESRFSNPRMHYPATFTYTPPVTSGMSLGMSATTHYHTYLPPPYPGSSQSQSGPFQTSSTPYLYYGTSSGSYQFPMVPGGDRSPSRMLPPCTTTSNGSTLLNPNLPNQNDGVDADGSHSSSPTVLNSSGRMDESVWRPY

B1: sLZIP: human small leucine-zipper protein, isoform of LZIP, 354 amino acids, no transmembrane domain, GenBank FJ263669, SEQ ID NO: 1 (protein, listed as Homo sapiens)
chain: MELELDAGDQDLLAFLLEESGDLGTAPDEAVRAPLDWALPLSEVPSDWEVDDLLCSLLSPPASLNILSSSNPCLVHHDHTYSLPRETVSMDLESESCRKEGTQMTPQHMEELAEQEIARLVLTDEEKSLLEKEGLILPETLPLTKTEEQILKRVRRKIRNKRSAQESRRKKKVYVGGLESRVLKYTAQNMELQNKVQLLEEQNLSLLDQLRKLQAMVIEISNKTSSSSMYSSDTRGSLPAEHGVLSRQLRALPSEDPYQLELPALQSEVPKDSTHQWLDGSDCVLQAPGNTSCLLHYMPQAPSAEPPLEWPFPDLFSEPLCRGPILPLQANLTRKGGWLPTGSPSVILQDRYSG
[1]; HDAC3 0.5 μg co-expressed, sLZIP 0.25 and 0.5 μg
  transcriptional activity of Runx2: restored the transcriptional activity of Runx2
[1]; PPARγ2 0.5 μg co-expressed, sLZIP 0.5 μg
  transcriptional activity of Runx2: restored the activity of Runx2
[1]; sLZIP 0.1 μg to 0.5 μg
  increase of the transcriptional activity of Runx2 (factor): about 4
[2]
  ossification of skull and limb: further promoted ossification
[3]
  expression of chondrocyte differentiation marker genes (Sox9, ColIIIA1): no influence
[4]
  cartilage development of leg and tail: no difference
[5]
  osteoclast markers (Oscar, Ctsk, TARP): no difference
